# Measured values taken from the DeepSol protein solubility set.
# Experiment: soluble on expression in E. coli; label from the status in PepcDB or PDB records
row,Sequence,soluble on expression in E. coli
1,MKKKPLTPEQLDDAKRLKELFNAKKKALGISQESVAHELGVGQSAVNQFLNGVNPLNITNAAAFAKVLNEPISSFSPSLAKELAKMAESLSITTRSGAKDKPAVSVANSYPLISWISAGNWYEAIEPYTLRDIEIWPESTKHAHESAFWLSVKGDSMTSPSGISFPEGMIILVDPEKEPMPGNFVIAKLTDDNEATFKKLVVDAGIKYLKPLNPAYRLIELNGNCKILGVVVDARWLQID,not soluble
2,MKKKQVMLALTAAAGLGLTALHSAPAAKAAPLHDISVSMPSSDTYIIKAGKLNVRTEPNHEGDILGTVSSEQKVKVDRFVNADWAQIHFKGKKAYISTHFLMKTASQAKTTKQTAFYTPTPENGKAKQLSSGTEVTILGWGFSENGGFDFTWAFVDYGGVKGYIHTKDLQMRLEHHHHHH,soluble
3,MKKLAFAVTVASGAAAVIANHEADASTQHTVKSGESLWSISQQYGVSVDEIKQSNDINNNMVFPGQVIEIGGSSSQESGSTSNNTSNGSSHTVQSGESLNIIANQYGVSVDEIIAANNLNGYLIHPNQTLTIPGTTGTGGSGGTATETPSSNTGGSTASDANLYDWGQCTWHVFNRRAETGQPISTYWWNADHWANNASADGYTVNNAPTAGSIMQNYEGPVGHVAYVERVNPDGSILISEMNYNTPPGTVDYRTIPASQASSYNYIHLEHHHHHH,not soluble
4,MKKLLLSILFVGGGLISLSNNFTGPRYRVDISTGFIDDRRFALTSGYKFFSGSVSVLPEWELKFNKKFDISFGPKVSLNFENFIGSMDATTINPSIILGGEIDFNYKVIEDVKIYAGMEVGTGIGFQAFVSSSHNHFQGPELKTESKISLGVKVKDKFNLAFYTGDIKGVIGVEAGYTF,not soluble
5,MKKPVYLTPEGYRRLQEELNHLKTVKRQEISADFEQALEEGDLRENAGYDEARRAMWQNEARIAQLEDLLSRAVIVENGSFDQVALGCQVELETETGERLSLAIVGSHEADIFSGKISDESPLGQALLGKKVGDVVEIRGKKGAQVYTILEIKPL,soluble
6,MKKSSEVMHQACDACRKKKWKCSKTVPTCTNCLKYNLDCVYSPQVVRTPLTRAHLTEMENR,soluble
7,MKKTYVLDTNVLLQDPHAIFAFQDNEVVIPAVVLEEVDSKKRYMDEIGRNARHFSKLIDQLRGLGKLHEGVPLENGGKLRIELNHKSYEKVKDSFAEMTNDNRIIAVALNLSLEETEKPNGNQVILVSKDALVRVKADALRLKAEDFLNDRVIQYDRGY,not soluble
8,MKKWWLAAVVAMIAVGGCAKEETEQKQSLQGANLLRTQTSGTAKHAELNQGPAERAASYLRGRDDVRDVVAVNSEDRLLIAYQIPHMKRWSRKQIEKDIDQKLRDLFPGYDVVSSSDLKIFWKTKELKANMDNRRWDERKVNREIRRIEKLSKEQT,not soluble
9,MKKYLFAEQGFVEKPDFGADCWVCVETPDAEDMKFLIDTLNVPEDFLSDIADADERPRVEHDGDWHLTILRIPIESRLSGVPYVTVPMGIATRSDVTVSVCYHRAPMLADFLLHTRRKRIKVLNRTELVLRLIYSSAVWFLKYLKQINNEVTISERELERSIRNEDLIHLMMLQKTLVYFSTSIRGNEAVLGKIRASGENRIDEELVEDVRIELRQAYNTVNIYSDILSGTTEALSGVISNNLNTIMKR,not soluble
10,MKLACKIYNTLRWADIYFYQRDGKGLTQTELRQLALDLRKQDDEYKQLYSQVVQQIADRYYEARQRFFEGLARFPKEKKPHKYYSLVYPQYGWKILQVREIRKGSKKNKKRLITLKLSNLGTFKVIIHRDFPLDKVKRVVVKLTRSERIYITFVVEDYEFPKLPNTGKVVAIDVGIEKLIVTSDGEYFPNLRPYEKALWKVKHLHRELSRKKFLSNNWFKAKVKLARAYEHLKNLRTDLYMKLGKWFAEHYDVVVMEDIHVKQLIGKSLRSLRRRLSDVAFSELRDLIKYQLEKYGKKLILVNPAYTSKTCARCGYVKEDLSLSDRVFVCSNCGWIADRDYNASLNILRGSGSERPLVWSSALYQYQHFGTGMAELLEHHHHHH,soluble
11,MKLALFDLDNTLLAGDSDFQWAQFLIEQQVLDREVYEARNIEFYEQYKAGTLDIHEFLDFQLKPLSRHPREQLNTWRSDFIERKIAPLIAPGARELIARHQAEKDLCIIITATNSFVTAPIARMLGIDHLIATEPEQKNGEFTGRVTGIPSFQAGKITRLEQWLDAHNLTWLSFLQSWFYSDSLNDLPLLKRVTHPVAVDPDATLHEHAKKSGWPIISLRQ,not soluble
12,MKLEASCGTATSEVPKPEKKTARDAEPSSETRPQEVEAEPRSGSGPEAEAEPLDFVVATERESEEVLAISGGIYGGLDYLPSRYHSWLRDPDRTVVLAKRNGGVIALESVNVIDAGETVLVEGLRVAPWERGKGVAGLLQRFCSQLVKRQHPGVKVARLTRDDQLGPRELKKYRLITKQGILLVRFNASALLAGLGARLAALRTSGTFSPLPTEAVSEAGGDVARLLLSPSVQRDVLPGGTIIQDWQPYRPSESNLRLLAAKGLEWRVDSRARPRVLTLCTRPFPIPHGGDGTWRYLNIDAFGSDGAQVQSQLLWHLQRQAPRLVGLNVMCQLFLEPQLWSQLADFCQVGLGLELVKGYTEQYLLEADI,soluble
13,MKLERVLPFARSLLQTAVKEGDYAVDATLGNGHDTCFLAEIVGDNGKVFGFDIQKEAIESSTTRLKEKELFERTVLVHDSHDTLLSILPEDAKGKVTGAIFNLGYLPGGDKHIVTKPNSTISAIEQLLEVMAPEGIIVLVIYHGHPEGQVERDAVLKFAEELDQKQAHVLRYGFINQQNNPPFIVAIEKR,not soluble
14,MKLERVTVKNFRSHSDTVVEFKEGINLIIGQNGSGKSSLLDAILVGLYWPLRIKDIKKDEFTKVGARDTYIDLIFEKDGTKYRITRRFLKGYSSGEIHAMKRLVGNEWKHVTEPSSKAISAFMEKLIPYNIFLNAIYIRQGQIDAILESDEAREKVVREVLNLDKFETAYKKLSELKKTINNRIKEYRDILARTE,soluble
15,MKLFLAEPFKSLWAGRDAFAEVEGLSGEVYRELEGRRTLRTEVDGRGYFVKIHRGIGWGEIAKNLATAKLPVLGAGKEWDAIERLHEVGVPTMTAVAYGERGSNPAAQHSFIVTEELAPTTSLEDVSLNWRTEPPEPRLKRAFIAEVARLVGMMHRAGVNHRDCYICHFLLHTDKPVTADDFRLSVIDLHRAQTRRAITPRWRNKDLAALYFSALDIGLTRRDKLRFLKDYFQLPLREILLKEAALLTWLDKKADKLYQRKVRYGDAL,not soluble
16,MKLGNVVIVLGKRLVNNQLSAEGISRVEALAAKIREMPMENTALVFCGGKTQGQSISEADAMYAYFQTLNTSLAKPFPTSQTLLENRSLNTFENMRNAAKVLCESGLFPLPSQATVEVILLSNVYHLERILEIQTLMDEQGLLRVIKSQCASVGLDLHISLDIQKHISVPYPHQGPQAEAFLLLDELTTYRVYLEGVKSGAFQRDLTSVRAQPLLRAKQAISQLRALPLEMDVLQQIAEMKKAIEMTAFDESVATAERALEMFHPILTALNRRLDPESIQAAALEHHHHHH,soluble
17,MKLIRGIHNLSQAPHGCVLTIGNFDGVHRGHRALLQGLQEEGRRRGLPVVVMIFEPQPLELFATDKAPARLTRLREKLHYLAQCGVDYVLCVKFDRRFAALTAQTFISELLVERLGVQFLAVGDDFRFGASRAGDFLLLQKAGAEYGFAVSSTQTFCEGGVRISSTAVRQALAEDNLALAESLLGHPFTISGRVVHGDELGRTIGFPTANLPLRRQVSPVKGVYAVEVTGLGDKPLPGVANIGTRPTVAGVRQQLEVHLLDVVMDLYGRHIDVILRKKIRNEQRFASLDELKAQIARDELTARKFFGLAGQV,not soluble
18,MKLLDHKLSLLEITDEEKSDEIILNLSRNVKKDLEDIVVANVSMENVLVMNIKVPPTLNKQNAVEYATMEISRNLGILPEQLVVAPLDIRGGEGLFFVSKVDQVKSFVTDLMKKEFPETDVVIPDIVKYLEVFEFYFGKRLKGTS,soluble
19,MKLNIRAQTAQNQHNNSPIVLVHGLFGSLDNLGVLARDLVNDHNIIQVDVRNHGLSPREPVMNYPAMAQDLVDTLDALQIDKATFIGHSMGGKAVMALTALAPDRIDKLVAIDIAPVDYHVRRHDEIFAAINAVSESDAQTRQQAAAIMRQHLNEEGVIQFLLKSFVDGEWRFNVPVLWDQYPHIVGWEKIPAWDHPALFIPGGNSPYVSEQYRDDLLAQFPQARAHVIAGAGHWVHAEKPDAVLRAIRRYLNDH,soluble
